Results taken from patent EP4745153A1, “GLP-1, GIP AND GCG RECEPTOR […] USE THEREOF” (Jiangsu Hengrui Pharmaceuticals Co., Ltd., priority 2023, dated 2025).
Starred links: 1 amine or outer side, 2 acyl side, 3 side chain; linkers in the order of their positions; H or OH if unused. Non-standard residues stand in square brackets, D forms with d. Groups on a side chain read outwards from the residue. No end group written: not given here. *: point of attachment. C20 diacid = O=C(O)CCCCCCCCCCCCCCCCCCC(=O)*; γGlu = O=C(O)[C@H](CCC(=O)[*:2])N[*:1]; αMeL = CC(C)C[C@](C)(N)C(=O)O; αMeK = C[C@](N)(CCCCN)C(=O)O; AEEA = NCCOCCOCC(=O)O; Aib = CC(C)(N)C(=O)O

T1: human glucose-dependent insulinotropic polypeptide receptor (human, UniProt P48546 22-466)
T1 sequence (looked up): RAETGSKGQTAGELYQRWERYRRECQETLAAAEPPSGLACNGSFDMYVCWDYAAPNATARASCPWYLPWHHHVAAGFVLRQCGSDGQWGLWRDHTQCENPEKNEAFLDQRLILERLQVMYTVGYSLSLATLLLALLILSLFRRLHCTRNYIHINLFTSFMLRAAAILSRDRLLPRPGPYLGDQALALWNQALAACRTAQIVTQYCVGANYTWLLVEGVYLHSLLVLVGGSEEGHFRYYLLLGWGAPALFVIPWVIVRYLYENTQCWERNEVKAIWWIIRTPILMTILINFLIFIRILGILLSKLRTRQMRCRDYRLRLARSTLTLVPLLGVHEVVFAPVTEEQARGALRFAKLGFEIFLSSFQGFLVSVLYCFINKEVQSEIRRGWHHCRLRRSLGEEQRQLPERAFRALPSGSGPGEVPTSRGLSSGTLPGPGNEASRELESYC

B1: Compound No. 0119 (peptide)
peptide: H[Aib]HGTFTSDYS[αMeK]ILEK([AEEA-AEEA-γGlu-C20 diacid])KAAQEFVEWLLAGGPSSGAPPPS-NH2
modifications: N-terminus assumed
SMILES: CC[C@H](C)[C@H](NC(=O)[C@](C)(CCCCN)NC(=O)[C@H](CO)NC(=O)[C@H](Cc1ccc(O)cc1)NC(=O)[C@H](CC(=O)O)NC(=O)[C@H](CO)NC(=O)[C@@H](NC(=O)[C@H](Cc1ccccc1)NC(=O)[C@@H](NC(=O)CNC(=O)[C@H](Cc1c[nH]cn1)NC(=O)C(C)(C)NC(=O)[C@@H](N)Cc1c[nH]cn1)[C@@H](C)O)[C@@H](C)O)C(=O)N[C@@H](CC(C)C)C(=O)N[C@@H](CCC(=O)O)C(=O)N[C@@H](CCCCNC(=O)COCCOCCNC(=O)COCCOCCNC(=O)CC[C@H](NC(=O)CCCCCCCCCCCCCCCCCCC(=O)O)C(=O)O)C(=O)N[C@@H](CCCCN)C(=O)N[C@@H](C)C(=O)N[C@@H](C)C(=O)N[C@@H](CCC(N)=O)C(=O)N[C@@H](CCC(=O)O)C(=O)N[C@@H](Cc1ccccc1)C(=O)N[C@H](C(=O)N[C@@H](CCC(=O)O)C(=O)N[C@@H](Cc1c[nH]c2ccccc12)C(=O)N[C@@H](CC(C)C)C(=O)N[C@@H](CC(C)C)C(=O)N[C@@H](C)C(=O)NCC(=O)NCC(=O)N1CCC[C@H]1C(=O)N[C@@H](CO)C(=O)N[C@@H](CO)C(=O)NCC(=O)N[C@@H](C)C(=O)N1CCC[C@H]1C(=O)N1CCC[C@H]1C(=O)N1CCC[C@H]1C(=O)N[C@@H](CO)C(N)=O)C(C)C
B2: Compound No. 0112 (peptide)
peptide: H[Aib]HGTFTSDYS[αMeK]LLEK([AEEA-AEEA-γGlu-C20 diacid])KAAQEFVEWLLAGGPSSGAPPPS-NH2
modifications: N-terminus assumed
SMILES: CC(C)C[C@H](NC(=O)[C@H](CC(C)C)NC(=O)[C@H](Cc1c[nH]c2ccccc12)NC(=O)[C@H](CCC(=O)O)NC(=O)[C@@H](NC(=O)[C@H](Cc1ccccc1)NC(=O)[C@H](CCC(=O)O)NC(=O)[C@H](CCC(N)=O)NC(=O)[C@H](C)NC(=O)[C@H](C)NC(=O)[C@H](CCCCN)NC(=O)[C@H](CCCCNC(=O)COCCOCCNC(=O)COCCOCCNC(=O)CC[C@H](NC(=O)CCCCCCCCCCCCCCCCCCC(=O)O)C(=O)O)NC(=O)[C@H](CCC(=O)O)NC(=O)[C@H](CC(C)C)NC(=O)[C@H](CC(C)C)NC(=O)[C@](C)(CCCCN)NC(=O)[C@H](CO)NC(=O)[C@H](Cc1ccc(O)cc1)NC(=O)[C@H](CC(=O)O)NC(=O)[C@H](CO)NC(=O)[C@@H](NC(=O)[C@H](Cc1ccccc1)NC(=O)[C@@H](NC(=O)CNC(=O)[C@H](Cc1c[nH]cn1)NC(=O)C(C)(C)NC(=O)[C@@H](N)Cc1c[nH]cn1)[C@@H](C)O)[C@@H](C)O)C(C)C)C(=O)N[C@@H](C)C(=O)NCC(=O)NCC(=O)N1CCC[C@H]1C(=O)N[C@@H](CO)C(=O)N[C@@H](CO)C(=O)NCC(=O)N[C@@H](C)C(=O)N1CCC[C@H]1C(=O)N1CCC[C@H]1C(=O)N1CCC[C@H]1C(=O)N[C@@H](CO)C(N)=O
B3: Compound No. 0120 (peptide)
peptide: H[Aib]HGTFTSDYSILLEK([AEEA-AEEA-γGlu-C20 diacid])KAAQEFVEWLLAGGPSSGAPPPS-NH2
modifications: N-terminus assumed
SMILES: CC[C@H](C)[C@H](NC(=O)[C@H](CO)NC(=O)[C@H](Cc1ccc(O)cc1)NC(=O)[C@H](CC(=O)O)NC(=O)[C@H](CO)NC(=O)[C@@H](NC(=O)[C@H](Cc1ccccc1)NC(=O)[C@@H](NC(=O)CNC(=O)[C@H](Cc1c[nH]cn1)NC(=O)C(C)(C)NC(=O)[C@@H](N)Cc1c[nH]cn1)[C@@H](C)O)[C@@H](C)O)C(=O)N[C@@H](CC(C)C)C(=O)N[C@@H](CC(C)C)C(=O)N[C@@H](CCC(=O)O)C(=O)N[C@@H](CCCCNC(=O)COCCOCCNC(=O)COCCOCCNC(=O)CC[C@H](NC(=O)CCCCCCCCCCCCCCCCCCC(=O)O)C(=O)O)C(=O)N[C@@H](CCCCN)C(=O)N[C@@H](C)C(=O)N[C@@H](C)C(=O)N[C@@H](CCC(N)=O)C(=O)N[C@@H](CCC(=O)O)C(=O)N[C@@H](Cc1ccccc1)C(=O)N[C@H](C(=O)N[C@@H](CCC(=O)O)C(=O)N[C@@H](Cc1c[nH]c2ccccc12)C(=O)N[C@@H](CC(C)C)C(=O)N[C@@H](CC(C)C)C(=O)N[C@@H](C)C(=O)NCC(=O)NCC(=O)N1CCC[C@H]1C(=O)N[C@@H](CO)C(=O)N[C@@H](CO)C(=O)NCC(=O)N[C@@H](C)C(=O)N1CCC[C@H]1C(=O)N1CCC[C@H]1C(=O)N1CCC[C@H]1C(=O)N[C@@H](CO)C(N)=O)C(C)C
B4: Compound No. 0115 (peptide)
peptide: H[Aib]HGTFTSDYS[αMeK]YLEK([AEEA-AEEA-γGlu-C20 diacid])KAAQEFVEWLIEGGPSSGAPPPS-NH2
B5: Compound No. 0154 (peptide)
peptide: H[Aib]QGTFTSDYSILLEK([AEEA-AEEA-γGlu-C20 diacid])KAAQEFVEWLLAGGPSSGAPPPS-NH2
modifications: N-terminus assumed
SMILES: CC[C@H](C)[C@H](NC(=O)[C@H](CO)NC(=O)[C@H](Cc1ccc(O)cc1)NC(=O)[C@H](CC(=O)O)NC(=O)[C@H](CO)NC(=O)[C@@H](NC(=O)[C@H](Cc1ccccc1)NC(=O)[C@@H](NC(=O)CNC(=O)[C@H](CCC(N)=O)NC(=O)C(C)(C)NC(=O)[C@@H](N)Cc1c[nH]cn1)[C@@H](C)O)[C@@H](C)O)C(=O)N[C@@H](CC(C)C)C(=O)N[C@@H](CC(C)C)C(=O)N[C@@H](CCC(=O)O)C(=O)N[C@@H](CCCCNC(=O)COCCOCCNC(=O)COCCOCCNC(=O)CC[C@H](NC(=O)CCCCCCCCCCCCCCCCCCC(=O)O)C(=O)O)C(=O)N[C@@H](CCCCN)C(=O)N[C@@H](C)C(=O)N[C@@H](C)C(=O)N[C@@H](CCC(N)=O)C(=O)N[C@@H](CCC(=O)O)C(=O)N[C@@H](Cc1ccccc1)C(=O)N[C@H](C(=O)N[C@@H](CCC(=O)O)C(=O)N[C@@H](Cc1c[nH]c2ccccc12)C(=O)N[C@@H](CC(C)C)C(=O)N[C@@H](CC(C)C)C(=O)N[C@@H](C)C(=O)NCC(=O)NCC(=O)N1CCC[C@H]1C(=O)N[C@@H](CO)C(=O)N[C@@H](CO)C(=O)NCC(=O)N[C@@H](C)C(=O)N1CCC[C@H]1C(=O)N1CCC[C@H]1C(=O)N1CCC[C@H]1C(=O)N[C@@H](CO)C(N)=O)C(C)C
B6: Compound No. 0155 (peptide)
peptide: H[Aib]QGTFTSDYSI[αMeL]LEK([AEEA-AEEA-γGlu-C20 diacid])KAAQEFVEWLLAGGPSSGAPPPS-NH2
modifications: N-terminus assumed
SMILES: CC[C@H](C)[C@H](NC(=O)[C@H](CO)NC(=O)[C@H](Cc1ccc(O)cc1)NC(=O)[C@H](CC(=O)O)NC(=O)[C@H](CO)NC(=O)[C@@H](NC(=O)[C@H](Cc1ccccc1)NC(=O)[C@@H](NC(=O)CNC(=O)[C@H](CCC(N)=O)NC(=O)C(C)(C)NC(=O)[C@@H](N)Cc1c[nH]cn1)[C@@H](C)O)[C@@H](C)O)C(=O)N[C@@](C)(CC(C)C)C(=O)N[C@@H](CC(C)C)C(=O)N[C@@H](CCC(=O)O)C(=O)N[C@@H](CCCCNC(=O)COCCOCCNC(=O)COCCOCCNC(=O)CC[C@H](NC(=O)CCCCCCCCCCCCCCCCCCC(=O)O)C(=O)O)C(=O)N[C@@H](CCCCN)C(=O)N[C@@H](C)C(=O)N[C@@H](C)C(=O)N[C@@H](CCC(N)=O)C(=O)N[C@@H](CCC(=O)O)C(=O)N[C@@H](Cc1ccccc1)C(=O)N[C@H](C(=O)N[C@@H](CCC(=O)O)C(=O)N[C@@H](Cc1c[nH]c2ccccc12)C(=O)N[C@@H](CC(C)C)C(=O)N[C@@H](CC(C)C)C(=O)N[C@@H](C)C(=O)NCC(=O)NCC(=O)N1CCC[C@H]1C(=O)N[C@@H](CO)C(=O)N[C@@H](CO)C(=O)NCC(=O)N[C@@H](C)C(=O)N1CCC[C@H]1C(=O)N1CCC[C@H]1C(=O)N1CCC[C@H]1C(=O)N[C@@H](CO)C(N)=O)C(C)C

molecular target: T1, human glucose-dependent insulinotropic …; assay: cell-based or functional assay

B1 and B2 are the same in “Activity against human GIPR (EC50 nM)” value: 0.005 nM for the first, 0.005 nM for the second.

Compared with B3, B4 is 25-fold higher in “Activity against human GIPR (EC50 nM)” value: 0.002 nM for the first, 0.051 nM for the second.

molecular target: T2, human glucagon-like peptide-1 receptor (human, UniProt P43220 24-463); assay: cell-based or functional assay

B1 and B2 are within 1.5-fold of each other in “Activity against human GLP-1R (EC50 nM)” value: 0.023 nM for the first, 0.031 nM for the second.

B3 and B4 are within 1.5-fold of each other in “Activity against human GLP-1R (EC50 nM)” value: 0.026 nM for the first, 0.023 nM for the second.

molecular target: T3, human glucagon receptor (human, UniProt P47871 26-477); assay: cell-based or functional assay
T3 sequence (P47871 26-477): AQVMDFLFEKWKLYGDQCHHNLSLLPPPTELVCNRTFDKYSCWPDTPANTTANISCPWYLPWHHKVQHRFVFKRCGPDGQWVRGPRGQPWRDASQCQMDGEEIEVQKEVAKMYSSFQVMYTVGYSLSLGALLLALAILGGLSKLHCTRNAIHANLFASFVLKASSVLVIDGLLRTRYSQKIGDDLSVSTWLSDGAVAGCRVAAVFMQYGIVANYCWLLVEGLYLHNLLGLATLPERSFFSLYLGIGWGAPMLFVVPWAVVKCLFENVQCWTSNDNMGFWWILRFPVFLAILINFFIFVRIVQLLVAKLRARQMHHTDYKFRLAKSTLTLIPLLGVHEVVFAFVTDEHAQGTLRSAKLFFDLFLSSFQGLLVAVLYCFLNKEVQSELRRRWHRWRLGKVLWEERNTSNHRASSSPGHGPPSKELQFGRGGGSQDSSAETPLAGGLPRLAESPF

B1 and B2 are the same in “Activity against human GCGR (EC50 nM)” value: 0.087 nM for the first, 0.087 nM for the second.

Going from B3 to B4, the “Activity against human GCGR (EC50 nM)” value rises from 0.121 nM to 0.425 nM (3.5-fold).

molecular target: T1, human glucose-dependent insulinotropic …; assay: cell-based or functional assay; remark: another data set of the same source

First: B5
Second: B6
The “Activity against human GIPR (EC50 nM)” value of the first is 2.2-fold higher: 0.031 nM for the first, 0.014 nM for the second.

molecular target: T2, human glucagon-like peptide-1 receptor; assay: cell-based or functional assay; remark: another data set of the same source

B5 and B6 are within 1.5-fold of each other in “Activity against human GLP-1R (EC50 nM)” value: 0.033 nM for the first, 0.036 nM for the second.

molecular target: T3, human glucagon receptor; assay: cell-based or functional assay; remark: another data set of the same source

First: B5
Second: B6
The “Activity against human GCGR (EC50 nM)” value of the first is 2.3-fold lower: 1.62 nM for the first, 3.65 nM for the second.
